For this assay, the target named is transient receptor potential (TRP) channels. As to the kind of experiment: SPR; plasmonic tilted fiber Bragg grating (fiber-optic SPR) probe; TRP immobilised on the 50 nm gold film through 11-mercaptoundecanoic acid and EDC/NHS; CaM (0.1 nM to 10 uM) injected in a microfluidic capillary; 50 mM Tris-HCl, 100 mM NaCl, 1 mM DTT, 1 mM CaCl2, pH 7.5; read-out is the intensity change of a cladding mode.

On to “calmodulin (from UniProt P0DP23 1-149) (natural protein)”, for which the intensity change of the selected cladding mode at 1 uM CaM, 30 min was determined as 1.7 dB.

These data come from PMC8231783.
